This is an account of results in US20100216969A1 (BIONANOPHOTNICS A S, published 2010).

The assay deals with T1, Lysozyme (Sigma L-7651) (UniProt P00698 19-147).
T1 construct: Used as 2 uM solution in 25 mM Tris pH 7.0; also called model protein
In words: TIRF flow chamber, tryptophan fluorescence (excitation 295 nm, emission 350 nm); lysozyme loaded over the peptide-coated quartz slide with the light off, then Tween20/PBS and buffer rinses. From the text: A TIRF system (BioElectroSpec, Inc., Harrisburg, Pa.) coupled with a fluorescence spectrophotometer (PTI QM-2000 from Photon Technology Int., Lawrenceville, N.J.) with a 75W Xenon arc source was used. The PTI instrument excitation and emission slits were set at 6 nm. The flow chamber was comprised by a “sandwich” consisting of a TIRF quartz prism, a TIRF quartz slide (with the sample surface), a 10 μm polyureathane gasket (comprising the chamber thickness), and a back block with holes to channel the solution through the flow chamber. In this setup, the excitation light travels through the prism and slide, hits the interface between slide and solution, leading to total internal reflection at the interface. The reflected beam generates an evanescent electromagnetic field in the centre of the TIRF slide—this area of the TIRF slide serves thus as the sensor surface. Only fluorophores that are present at the surface and in close proximity of the surface (within the evanescent field) are excited and fluoresce.

Bridge positions count the residues as written; N and C are the ends. Ends that are not written are not given here.

T1 sequence (P00698 19-147 limits assumed): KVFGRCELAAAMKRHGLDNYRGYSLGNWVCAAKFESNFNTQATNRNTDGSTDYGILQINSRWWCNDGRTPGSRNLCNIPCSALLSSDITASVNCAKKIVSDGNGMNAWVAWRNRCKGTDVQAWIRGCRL

B1: synthetic disulphide-peptide KAMHAWGCGGGC-NH2 (SEQ ID NO 9) (peptide)
peptide: KAMHAWGCGGGC-NH2
modifications: disulfide 8-12; also: attached to aldehyde quartz surface via lysine amine and/or N-terminal amine (Schiff bond)
notes: Loaded at 10 uM onto an aldehyde-coated TIRF quartz slide; It stood in the assay as the surface coating; also called peptide linker
B1: the binding result is “no binding (tested: 2 µM)”.
